How the values were obtained:
[1] = target: T1, IL-2Rβγ heterodimer, custom biotinylated Fc fusion protein (human IL-2Rβ 27-240-Fc-FLAG / human IL-2Rγ … (human, site-specific biotinylation at the AviTag)); test: SPR (Biacore), C1 or CM5 chip, biotinylated receptor on neutravidin
T1 construct: Extracellular regions fused to IgG1 knob-in-hole Fc subunits with tags; also called IL-2 receptor βγ heterodimer; Fc-IL-2Rβγ

[2] = target: T2, human IL-2Rα on Treg cells (CD3+, CD4+, CD25hi, FoxP3+) of human PBMC (human, UniProt P01589 22-272); test: cell-based or functional assay
T2 sequence (looked up): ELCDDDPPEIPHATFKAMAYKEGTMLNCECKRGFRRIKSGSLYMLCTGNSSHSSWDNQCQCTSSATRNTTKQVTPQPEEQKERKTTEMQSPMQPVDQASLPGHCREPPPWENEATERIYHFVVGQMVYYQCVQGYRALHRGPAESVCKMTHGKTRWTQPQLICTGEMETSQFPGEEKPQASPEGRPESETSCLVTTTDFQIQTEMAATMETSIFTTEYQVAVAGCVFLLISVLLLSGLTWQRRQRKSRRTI

[3] = target: T3, trimeric murine IL-2 receptor (IL-2Rα, IL-2Rβ, and IL-2Rγ) on CTLL-2 cells (murine, UniProt P01590 22-268; P16297 27-539; P34902 23-369); test: cell-based or functional assay
T3 sequence (looked up) 1: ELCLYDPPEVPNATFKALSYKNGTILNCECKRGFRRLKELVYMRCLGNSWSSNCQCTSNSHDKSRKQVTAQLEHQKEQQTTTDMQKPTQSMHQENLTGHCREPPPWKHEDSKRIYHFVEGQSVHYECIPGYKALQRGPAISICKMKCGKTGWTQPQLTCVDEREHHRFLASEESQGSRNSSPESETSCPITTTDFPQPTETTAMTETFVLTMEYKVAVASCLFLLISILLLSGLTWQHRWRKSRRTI
T3 sequence (looked up) 2: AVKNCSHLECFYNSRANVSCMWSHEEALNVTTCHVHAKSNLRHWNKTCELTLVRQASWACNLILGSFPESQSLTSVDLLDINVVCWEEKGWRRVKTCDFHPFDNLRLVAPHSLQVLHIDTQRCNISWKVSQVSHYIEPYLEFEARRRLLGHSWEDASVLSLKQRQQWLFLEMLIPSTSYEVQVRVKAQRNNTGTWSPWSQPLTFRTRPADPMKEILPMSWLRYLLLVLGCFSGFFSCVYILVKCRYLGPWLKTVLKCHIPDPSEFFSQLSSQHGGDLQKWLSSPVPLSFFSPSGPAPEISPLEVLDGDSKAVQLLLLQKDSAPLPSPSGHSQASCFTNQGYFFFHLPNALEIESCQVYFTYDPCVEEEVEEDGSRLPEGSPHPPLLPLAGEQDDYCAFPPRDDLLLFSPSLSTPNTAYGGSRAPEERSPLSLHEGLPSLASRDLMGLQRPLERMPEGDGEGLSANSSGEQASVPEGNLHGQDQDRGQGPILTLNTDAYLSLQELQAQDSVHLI
T3 sequence (looked up) 3: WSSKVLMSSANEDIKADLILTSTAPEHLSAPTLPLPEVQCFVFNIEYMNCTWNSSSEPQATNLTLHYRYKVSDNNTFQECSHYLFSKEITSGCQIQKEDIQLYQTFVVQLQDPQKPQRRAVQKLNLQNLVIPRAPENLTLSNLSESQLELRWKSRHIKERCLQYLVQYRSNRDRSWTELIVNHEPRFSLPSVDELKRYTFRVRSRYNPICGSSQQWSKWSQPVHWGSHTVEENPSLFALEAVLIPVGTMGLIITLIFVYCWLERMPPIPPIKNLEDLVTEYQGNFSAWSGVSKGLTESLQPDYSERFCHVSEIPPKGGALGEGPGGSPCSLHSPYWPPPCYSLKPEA

T1 sequence (chain, as listed by the source limits assumed): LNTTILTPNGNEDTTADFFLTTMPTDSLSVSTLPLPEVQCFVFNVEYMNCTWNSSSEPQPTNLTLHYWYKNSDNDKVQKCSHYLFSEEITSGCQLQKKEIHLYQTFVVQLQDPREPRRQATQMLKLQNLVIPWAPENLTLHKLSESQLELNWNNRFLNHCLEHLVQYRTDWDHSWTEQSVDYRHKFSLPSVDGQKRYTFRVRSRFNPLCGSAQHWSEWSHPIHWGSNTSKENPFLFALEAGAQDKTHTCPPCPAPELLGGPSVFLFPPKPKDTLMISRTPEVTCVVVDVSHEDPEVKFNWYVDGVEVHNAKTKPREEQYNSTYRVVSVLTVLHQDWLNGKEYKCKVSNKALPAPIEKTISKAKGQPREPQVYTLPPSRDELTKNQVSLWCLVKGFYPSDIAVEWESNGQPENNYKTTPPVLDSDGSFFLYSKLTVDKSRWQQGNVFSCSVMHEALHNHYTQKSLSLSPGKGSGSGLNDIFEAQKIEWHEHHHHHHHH

Kd [1]: 142 pM | Treg EC50, STAT5 activation (PBMC STAT5 assay) [2]: < 1 pM | STAT5 activation of CTLL-2 cells, EC50 [3]: 2 pM
B1: Fc-IL-2 heterodimer 117.46 (hIL-2v_Δ1-5_C125S), native IL-2Rα binding interface (Fc fusion)
chain 1: ESKYGPPCPPCPAPEAAGGPSVFLFPPKPKDTLMISRTPEVTCVVVDVSQEDPEVQFNWYVDGVEVHNAKTKPREEQFNSTYRVVSVLTVLHQDWLNGKEYKCKVSNKGLPSSIEKTISKAKGQPREPQVYTLPPSQEEMTKNQVSLWCLVKGFYPSDIAVEWESNGQPENNYKTTPPVLDSDGSFFLYSRLTVDKSRWQEGNVFSCSVMHEALHNHYTQKSLSLSLGGGGGSGGGGSGGGGSGGGGSSTKKTQLQLEHLLLDLQMILNGINNYKNPKLTRMLTFKFYMPKKATELKHLQCLEEELKPLEEVLNLAQSKNFHLRPRDLISNINVIVLELKGSETTFMCEYADETATIVEFLNRWITFSQSIISTLT
chain 2: ESKYGPPCPPCPAPEAAGGPSVFLFPPKPKDTLMISRTPEVTCVVVDVSQEDPEVQFNWYVDGVEVHNAKTKPREEQFNSTYRVVSVLTVLHQDWLNGKEYKCKVSNKGLPSSIEKTISKAKGQPREPQVYTLPPSQEEMTKNQVSLSCAVKGFYPSDIAVEWESNGQPENNYKTTPPVLDSDGSFFLVSRLTVDKSRWQEGNVFSCSVMHEALHNRFTQKSLSLSLGK
notes: hIgG4 knob-in-hole Fc heterodimer

Reference: patent publication US20240269235A1 (Gilead, published 2024)
